Reference: patent US20240043507A1 (RQ BIOTECHNOLOGY, published 2024)
Where a chain is given by its changes, count along the chain named.

B1: antibody 58 (antibody, V domains shown)
VH: QVQLVESGGGLVQPGRSLRLSCAASGFTFDDYAMHWVRQPPGKGLEWVSGVSWNSGTIGYADSVKGRFIISRDNAKNSLYLQMNSLKAEDTALYYCAREVGGTFGVLISREGGLDYWGQGTLVTVSS
VL: SYELTQPPSVSVAPGQTARITCGGNTIGSKSVHWYQQRPGQAPVLVVYDDSDRPSGIPERFSGSNSGNTATLTISRVEAGDEADYYCQVWDSSSDRVVFGGGTKLTVL
notes: also called mAb 58
B2: antibody 40 (antibody, V domains shown)
VH: QVQLVESGGGLVQPGGSLRLSCAVSGFTVSRNYMSWVRQAPGKGLEWVSLIYSGGSTFYADSVKGRFTISRDNSKNTLYLQMNSLRAEDTAVYYCARDLFHRSGYHDYWGQGTLVTVSS
VL: not shown
notes: also called mAb 40
B3: antibody 58 (antibody, V domains shown)
VH: B1 VH
VL: B1 VL
B4: antibody 316 (antibody, V domains shown)
VH: not shown
VL: QAVLTQPPSASGSPGQSVTISCTGTSSDVGGYNYVSWYQQHPGKAPKLMIYEVSKRPSGVPDRFSGSKSGNTASLTVSGLQAEDEADYYCSSYAGSNHWVFGGGTKLTVL
B5: antibody 398 (antibody, V domains shown)
VH: QVQLVESGGGLVQPGGSLRLSCAASGFTVSSNYMTWVRQAPGKGLEWVSVIYSGGSTYYADSVKGRFTISRDNSKNTLYLQMNSLRADDTAVYYCARDSTADYDFWSGYYVGAFHIWGQGTMVTVSS
VL: B4 VL with A2T, P8A, A10V, V18I, S54T, H98N
B6: antibody 158 (antibody, V domains shown)
VH: EVQLLESGGDLIQPGGSLRLSCAASGVTVSSNYMSWVRQAPGKGLEWVSIIYPGGSTFYADSVKGRFTISRDNSKNTLYLQMHSLRAEDTAVYYCARDLGSGDMDVWGKGTTVTVSS
VL: DIVMTQSPSFLSASVGDRVTITCRASQGISSYLAWYQQKPGKAPKLLIQAASTLQSGVPSRFSGSGSGTEFTLTISSLQPEDFATYYCQQLNSYRYTFGQGTKVEIK
B7: antibody 222 (antibody, V domains shown)
VH: EVQLVESGGGLIQPGGSLRLSCAASGLTVSSNYMSWVRQAPGKGLEWVSVIYSGGSTFYADSVKGRFTISRDNSKNTLYLQMNSLGAEDTAVYYCARGEGSPGNWFDPWGQGTLVTVSS
VL: DVVMTQSPGTLSLSPGERATLSCRASQSVPSSYLAWYQQKPGQAPRLLIYGASTRATGIPDRFSGSGSGTDFTLTISRLEPEDFAVYYCQHYDTSPRFGGGTKVDIK
B8: antibody 253H165L (antibody, V domains shown)
VH: not shown
VL: DIVMTQSPGTLSLSPGERATLSCRASQSVRSSYLAWYQQKPGQAPRLLIYGASRRGTGIPDRFSGSGSGTDFTLTISRLEPEDFAVYYCQQYGSSPWTFGQGTKVEIK
B9: antibody 269 (antibody, V domains shown)
VH: QVQLVESGGGLIQPGGSLRLSCAASGLTVNRNYMSWIRQAPGKGLEWVSVIYSGGSTFYADSVKGRFTISRDNSKNTLSLQMNSLRAEDTAIYYCARDFYEGSFDIWGQGTMVTVSS
VL: AIQLTQSPSFLSASIGDRVTITCRASQGISSYLAWYQQKPGKAPKLLIYAASTLQSGVPSRFSGSGSGTEFTLTISSLQPEDFASYYCQQLNSYPAPVFGPGTKVDIK
B10: antibody 318 (antibody, V domains shown)
VH: QVQLVQSGPEVKKPGTSVKVSCKASGFTLTSSAMQWVRQARGQRLEWIGWIVVGSGNTNYAQKFQERVTITRDMSTSTAYMELSSLRSEDTAVYYCAAGRGYNSDFDYWGQGTLVTVSS
VL: AIRMTQSPGTLSLSPGERATLSCRASQSVSSSYLAWYQQRPGQAPRLLIYGTSSRATGIPDRFSGSGSGTDFTLTISRLEPEDFAVYYCQQYGYSVYTFGQGTKVDIK
B11: antibody 40 (antibody, V domains shown)
VH: B2 VH
VL: not shown
B12: antibody 88 (antibody, V domains shown)
VH: QLQLQESGPGLVKPSQTLSLTCTVSGGSISSGSYNWTWIRQPAGKGLEWIGRIYNSGSTNYNPSLKSRVTISVDTSKNQLSLKVRSVTAADTAVYYCARHCSGGTCYPKYYYGMDVWGQGTTVTVSS
VL: QSALTQPPSVSEAPRQRVTISCSGSSSNIGNNAVNWYQQFPGKAPKLLIYYDDLLPSGVSDRFSGSKSGTSASLAISGVQSEDEADYYCAAWDDSLNVVVFGGGTKLTVL
B13: antibody 281 (antibody, V domains shown)
VH: QVQLVESGGGLVQPGGSLRLSCAASGFPFSIYWMSWVRQAPGKGLEWVANIKQDGSEKYYVDSVKGRFTISRDNAKNSLYLHMNSLRGEDTAVYYCASRYYDFRPEAWFDYWGQGTLVTVSS
VL: not shown
B14: antibody 175 (antibody, V domains shown)
VH: EVQLVESGGGLIQPGGSLRLSCAASGLTVSRNYMSWVRQAPGKGLEWVSLIYSGGSTYYADSVKGRFTISRDNSKNTLYLQMNSLRAEDTAVYYCARDLRGEVWGQGTMVTVSS
VL: not shown
B15: Fab 58 (Fab, V domains shown)
VH: B1 VH
VL: B1 VL
B16: Fab 316 (Fab, V domains shown)
VH: not shown
VL: B4 VL
notes: also called 316 Fab (glycosylated)
B17: Fab 45 (Fab, V domains shown)
VH: QVQLVESGGGVVQPGRSLRLSCAASGFTFSTYAMHWVRQAPGKGLEWVAVLSYDGSNKYYADSVKGRFTISRDNSKNTLYLQMNSLRAEDTAVYYCAKGGSYAYYYYMDVWGKGTTVTVSS
VL: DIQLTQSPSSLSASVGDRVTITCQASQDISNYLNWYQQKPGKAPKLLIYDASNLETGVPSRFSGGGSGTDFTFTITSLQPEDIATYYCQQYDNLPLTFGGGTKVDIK
B18: Fab 158 (Fab, V domains shown)
VH: B6 VH
VL: B6 VL
B19: Fab 222 (Fab, V domains shown)
VH: B7 VH
VL: B7 VL
notes: Fab
B20: Fab 165 (Fab, V domains shown)
VH: QVQLVQSGPEVKKPGTSVKVSCKASGFTFTSSAVQWVRQARGQRLEWIGWIVVGSGNTNYAQKFQESVTITRDMSTSTAYMELSSLRSEDTAVYYCAAPHCIGGSCHDAFDIWGQGTMVTVSS
VL: B8 VL
B21: Fab 269 (Fab, V domains shown)
VH: B9 VH
VL: B9 VL
notes: also called 269 Fab; COVOX-269 Fab
B22: Fab 318 (Fab, V domains shown)
VH: B10 VH
VL: B10 VL
B23: Fab 281 (Fab, V domains shown)
VH: B13 VH
VL: not shown
B24: Fab 278 (Fab, V domains shown)
VH: QVQLVQSGAEVKKPGASVKVSCKASGYIFIRYGISWVRQAPGQGLEWMGWISANNGYTNYAQKLQGRVTMTTDTSTSTAYMELRSLRSDDTAVYYCARDGGILTGYLDYFDHWGQGTLVTVSS
VL: DIQMTQSPSSLSASVGDRLTITCRASQSIASYLNWYQQKPGKAPKLLIYAASSLQSGVPSRFSGSGSGTDFTLTISSLQPEDFATYHCQQSYSTLGITFGPGTKVDIK
B25: Fab 175 (Fab, V domains shown)
VH: B14 VH
VL: not shown

molecular target: T1, SARS-CoV-2 spike receptor binding domain, native (SARS-CoV-2, UniProt P0DTC2 330-532); experiment: BLI, RBD on AR2G biosensor, mAb as analyte
T1 construct: range 330-532

Binder	Kd [nM]
B1	1.46
B2	1.33

molecular target: SARS-CoV-2 spike receptor binding domain (native RBD) (SARS-CoV-2, UniProt P0DTC2 330-532); experiment: not given

Binder	Kd [nM]
B3	0.3
B4	1.5
B5	1.02
B6	0.53
B7	0.29
B8	0.73
B9	1.59
B10	2.23
B11	0.55
B12	0.64
B13	3.2
B14	0.97

molecular target: T2, SARS-CoV-2 receptor binding domain (RBD), native (SARS-CoV-2, UniProt P0DTC2 330-532); experiment: BLI, Fab and RBD
T2 construct: range 330-532

Binder	Kd [nM]	koff [s⁻¹]	kon [M⁻¹ s⁻¹]
B15	3.4	–	–
B16	2	–	–
B17	5.9	0.00046	78000
B18	0.7	–	–
B19	3	–	–
B20	4.8	–	–
B21	2.2	–	–
B22	7.6	–	–
B23	1	–	–
B24	3	–	–
B25	2.4	–	–
